Source: patent US20090214518A1

Target: Endothelin B receptor (ETRB) (human) (UniProt P24530)
Assay: cell-based or functional assay

Sequence of UniProt P24530 (P24530 27-442 limits assumed): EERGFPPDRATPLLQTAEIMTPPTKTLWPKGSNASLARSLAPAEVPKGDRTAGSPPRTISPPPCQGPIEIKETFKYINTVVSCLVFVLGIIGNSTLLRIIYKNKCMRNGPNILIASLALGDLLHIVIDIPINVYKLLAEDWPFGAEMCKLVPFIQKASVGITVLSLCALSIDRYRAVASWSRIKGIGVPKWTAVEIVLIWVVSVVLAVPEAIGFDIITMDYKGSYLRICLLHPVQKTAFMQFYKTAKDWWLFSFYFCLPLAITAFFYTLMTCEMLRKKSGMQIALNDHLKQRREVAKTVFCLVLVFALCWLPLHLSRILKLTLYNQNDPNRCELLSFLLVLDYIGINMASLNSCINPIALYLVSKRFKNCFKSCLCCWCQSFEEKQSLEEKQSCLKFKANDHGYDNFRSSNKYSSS

## ETRB antagonist peptide, BQ-788
  ICAM-1 mRNA in HUVEC (qRT-PCR): > 7 fold
  adherence of activated human T cells to HUVEC: 40%
